# Data published in the nanobody polyreactivity screen of Harvey et al. (2022).
# Test: yeast display, Sf9 membrane polyspecificity reagent, FACS + sequencing; frameworks hold sequencing errors
# Procedure, shortened: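 Using colony PCR, genes from sorted yeast display clones were amplified, then sequenced on MiSeq at 2 × 250 and filtered by CDR length. The clones had been stained with 10% biotinylated, detergent-solubilized Sf9 membrane reagent for 1 hour at 4 °C and sorted by FACS into low and high (top ~1%) gates on anti-HA and streptavidin fluorescence. Polyreactivity labels come from the gate of origin.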
row,Sequence,polyreactivity (PSR sort gate)
1,QVQHVESGGGLVQAGGSLRLSCAASGSTFKYYAMGWSRQAPGKERELVAAISLSGGRTSYADSVKGRFTISRDNAKNTVYLQMNSLKPVDTAVYYCAAASYFPRFNYWGQGTQVTVSS,high polyreactivity
2,QVQHVESGGGLVQAGGSLRLSCAASGSTFQYPYTMGWYRQAPRKARELVAVISRTGGSTFYADSVKGRFTISRDNAKNTVYLQMNSLKPEDTAVYYCNARPRYKYPSYDYWGQGTQLTVSS,high polyreactivity
3,QVQHVESGGGLVQAGGSLRLSCAASGSTFRYYTMGWYRQAPGKERELVAAISGSGGITYYADSVKGRFTISRDNAKNTVYLQMNSLKPEDTAVYYCNAGVFYRDDYWGQGTEVTVSS,high polyreactivity
4,QVQHVESGGGLVQAGGSLRLSCAASGSTFSRYTMGWYRQAPGKERELVAGISRRGGITYYADSVKGRFTISRDNAKNTVYLQMNSLKPEDTAVYYCARTDVYWYGYPYDYWGQGTQVTVSS,high polyreactivity
5,QVQHVESGGGLVQAGGSLRLSCAASGSTFWYYDMGGYRQAPGKERELVAAISTRGDSTYYADSVKGRFTISRDNAKNTVYLQMNSLKPEDTAVYYCAKSRQSSGRVRFDYWGQGTQVTVSS,low polyreactivity
6,QVQHVESGGGLVQAGGSLRLSCAASGSTIEDYAMGWYRQAPGKERELVAAISFSGARTYYADSVKGRFTISRDKAKNTVYLQMNSLKPEDTAVYYCNAVSGIVQRYDYWGQGTQVTVSS,high polyreactivity
7,QVQHVESGGGLVQAGGSLRLSCAASGSTLGGYAMGWYRQAPGKERELVAAIRWRDGRTYYADSVKGRFTISRDNPKNTVYLQMNSLKPEDTAVYYCAAQYYLARVSFDYWGQGTQVTVSS,high polyreactivity
8,QVQHVESGGGLVQAGGSLRLSCAASRFIFVTYAMGCYIQAPGKERELVAAITNSGGTTYYADSVKGRFTISRDNAKNTVYLQMNSLKPEDTAVYYCNKPYGAETAHREFDYWGQGTQVTVSS,low polyreactivity
9,QVQHVESGGGLVQAGGSLRLSCAASVITFYGYTMGWYRQAPGKERELVARIRSRSTSTYYADSVKGRFTISRDNAKNTVDLQMNSLKPEDTAVYYCNADYTNPGSYRKYDYWGQGTQVTVSS,low polyreactivity
10,QVQHVESGGGLVQAGGSLRLSCAATGRTFVYYAMGWYRQPPRKESELVASISSVGTTKYADSVKGRFTISRDNAKNTVYLQMNSLKPEDTAVYYCNNADDYSTVEFDYWGQGTQVTVSS,low polyreactivity
11,QVQHVESGGGLVQAGGSLRLSCASSGFIFYKYVMGWYRQAPGKERELVAAINWSGGSTYYADSVKGRFTISRDNAKNTVYLQMNSLKPDVTAVYYCAALSQYRYDYWGQGTQVTVSS,high polyreactivity
12,QVQHVESGGGLVQAGGSLRLSCASSGRIFSDYAMGWYRPAPGKERELVAAISRSGTRTYYADSVKGRFTISRDNAKNTVYFQMISLKPEDTAVYYCAAKTQSGRAGQEEDYWGQGTQVTVSS,high polyreactivity
13,QVQHVESGGGLVQAGGSLRLSCPASGLTVGGYAMGWYRQAPGKERELVAAISLSGGRTYYADSVKGRFTISRDIPMITVYLLMNSLKPEVSAVYYCAASILVVYLREDYWGQGTQVTVSS,high polyreactivity
14,QVQHVESGGGLVQAGGSLRLSCSASGITFGYYAMGWYRQAPGKERELVAAIRSSGGSTYYADSVKGRFTISRDNAKNTVYLQMKSLKPEDTAVYYCNARYRKSSRPGYEPFERYYWGQGTQVTVSS,high polyreactivity
15,QVQHVESGGGLVQAGGSLRLSCSASGITLPGSAIGWYRQAAGKVREFVAAISTSGGSTYYADSVKGRFTISRDYAKNTVYLQMNSLKPEDTAVYYCNARLVYYSYEEMDYWGQGTQVTVSS,low polyreactivity
16,QVQHVESGGGLVQAGGSLRLSSAASGFTFSRNAMGWYRQAPGKERELVAAIDSGGSTDYADSVKGRFTISRDNAKNTVYLQMNSLKPEDTAVYYCNVDGYYLFVRGYEYWGQGTQLTVSS,low polyreactivity
17,QVQHVESGGGLVQAGGSLRLSSAASGNTINSNAMGWYRQSPGKEREFVAAISGSGSSTYYADSVKGRFTISRDYAKNTVYLQMNSLNPEDTAVYYCAARWGYFGSFDYWGQGTQVTVSS,high polyreactivity
18,QVQHVESGGGLVQAGGSLRLSSAASGRTFFRSAMGWYRQAPGKERELVAAISSRGGSTYYADSVKGRFTISRDNAKNTVYLHMNSLKPEDTAVYYCNAAAFINFILYDYWGQGTQVTVSA,high polyreactivity
19,QVQHVESGGGLVQAGGSLRLSSAASGRTYWPNAMGWYRQAPGKERELVAAISSGGSTNYADSVKGSFTISRDNAKNTVYLQMNSLKPEDTAVYFWSADGQGDKYDYYGHNYWGQGTHVTVSS,low polyreactivity
20,QVQHVESGGGLVQAGGSLRLSSAASGSIIGYYAMGWYRQAHGKERELVAAITWSGGRTYYADSVKGRFTISRDNAKNTVYFQMNSLKPEDTAVYYSNAANSRSAYYNWGHGTQVTVSS,high polyreactivity
21,QVQHVESGGGLVQAGGSQRLSCAASGSTLYYNAMGWYRQAPGKEREFVAGISSSGGRTYYADSVKGRFTISRDNAKNTVYLQMNSLKPEDTAVYYCARVGAIPSRYGYWGQGTQVTVSS,high polyreactivity
22,QVQHVESGGGLVQAGRSLRLSCAASGSIFRDNDMGWYRQATGKEREFVAAINWSGVSTYYADSVKGRFTISRDNAKNTVYLQMNSLKPEDTAVSYCAAGYLKWRRYNYWGQGTQVTVSS,high polyreactivity

row,Sequence,polyreactivity (PSR sort gate)
1,QVQHVESGGGLVQAGRSLRLSCAASGSIVGNNAMGWYRQAPGKERELVAVITDGGNTYYADSVKGRFTISRDNAKNTVYLEMNSLKPEDTAVYYCNADWWGDSDYWGQGTQVTVSS,low polyreactivity
2,QVQHVESGGGLVQAGRSLRLSCAATGRTFGSNAMGWYRQAPGKERELVAAISLRGGRTYYADSVKGRFTISRDNAKNTVYLQMNSLKPEDTAVYYCNAVHYLYGARSRLTYDYWGQGTQVTVSS,high polyreactivity
3,QVQHVESGGGLVQARGSLRLSCAASASIYPSYAMGWYRQAPGKERELVAVINSGGSTYYADSVKGRFTISRDNAKNTVYLQMNILNPEDTAGYYCAAYRRRYPRFDYWGPGTQVTVSS,high polyreactivity
4,QVQHVESGGGLVQARGSLRLSCAASGSIFFNTMGWYSQAPGKERELVAAITWSGGRTYYADSVKGRFTISRDNAKNTVYLQMNSLKPEDTAVYYCAKDQGSWRYDYWGLGTQVTVSS,low polyreactivity
5,QVQHVESGGGLVQARGSLRLSCSASGGTFSVYPMGWSRQAPVKERELLADISWSDASTYYADSVKGRFTISRDNAKNTVYLQMNSLKPEDTAVYYCAVSRQSGKGGSKELNDYWVQGTQVTVSS,low polyreactivity
6,QVQHVESGGGLVQAVGSLRLSCAASGIIFPRTAMGWYGQAPGKERELVAGISRSGGSTSYADSVKGRFTISRDNAKNTVYLQMNSRKPEDTAVYYCATRGHPFKKSYGSWGQGTQVTVSS,high polyreactivity
7,QVQHVESGGGLVQAVGSLRLSCSASGITFHYYTMGWYRQAPGKEREFVAAISKSGGRTYYADSVKGRFTISRDKAKNTVYLQMNSLKPEDTAVYYCAGLYYFNGDYWGEGTQVTVSS,high polyreactivity
8,QVQHVESGGGLVQEGGILRLSCAASGFTYRTYAMGWSRQAPGQESELVADISGSGGSTYYADSVKGRFTISRDNAKNTVYLQMNSQKPEDTAVFYCAADDASWSNLGYEYWGQGTQVTVSS,high polyreactivity
9,QVQHVESGGGLVQEGGSLRLSCAASARTFPFYAMGWYRQATGKERELVAAITRSDDSPYYADSVKGRFTFSRDNAKNTVYVQMHSLKPEDIAVYYCAADVEGLTVESHVYRVGFDYCGQGTQVTVSS,low polyreactivity
10,QVQHVESGGRLVQAGGILRLSCAASGRIFQSNAMGWYRQTPGKERELVAGITKRGGSTYYADSVKGRFTISLDYAKNTVYLQMNSLTPEDTAVYYCAKSWSYDPRYGSWGQGTQVTVSS,high polyreactivity
11,QVQHVESGGVLVQAGGSLRLSCAASGSTFGGYAMGWYRQAPGKERELVASISRRGGSTYYADSVKGRFTLSRDNAKNTFYFHMNSLKPEDTAVYYCNAAFLRQVWDGYNYWGQGSQVTVSS,high polyreactivity
12,QVQHVESGRCLFQAGGSLRLSCAASGSTFYNNALGWYRQAPGKERELVAVITDSGGRTYYADSVKGRFTISRDNAKNSVKLQMNSLKPEDCAVYYCAADIGYDVYNDYDYWGQGTQVTVSS,low polyreactivity
13,QVQHVESGRGLVQAGGSLRLSCAASGITFNQYAMGWYRQAPGKERELVAGISYSGGSTYYADSVKGRFTISRDNAKNTVYFQMISLKPEDTAVYYCAKRSPFTLDYWGQGTQVTVSS,high polyreactivity
14,QVQHVESGRGLVQAGGSLRLSCAASGRIFQYYTMGRYRQAPGKERELVAAISRSGSSTYYADSVKGRFTISRDNAKNTVYLQMNSLKPEDTAVYYCAAVSEYYKGYDYWGQGTQVTVSS,high polyreactivity
15,QVQHVESGVGLVQAGGSLRLSCAASGSTFVPYAMGWYRQAPGKDRELVAAISSAGSTNYADSVKGRFTISRDNAKNTVYLQMNSLKPEDTAVYYCARDIQDTYEFDYWGQGTQVTVSS,low polyreactivity
16,QVQHVESGVGLVQAVGSLRLSCAASGLTIDYNAMGWDRQAPVKERELVAAISWSGGSTYYADSLKGRFTISRDNAKNTVYLQMNSLKPEDNAVYYCNALPHIVIGGIICYEYWGQGTQVTVSS,high polyreactivity
17,QVQHVESRGGIVQAGGSLRLSCAASGFILYFNAMGWYRQAPGKERELVAAITSDGGSTYYADSVKGRFTISRDNAKNTVYLQMNSLKPEDTAVYYCAADASTWYTEEYWGQGTQVTVSS,low polyreactivity
18,QVQHVESRGGLLQAGGSLRLSCAASGRTLSFYGMGWYRQPPGKERELVAAISSSGSRTYYADSVKGRFTISRDNAKNTVYLQMNSLKPEHTAVYYCNALRIYHHYEYDYWGQGTQVTVSS,high polyreactivity
19,QVQHVESRGGLVQAGGSLRLSCAASGLILSGYTMGWYRPAPGKERELVAAISRSGGSTYYADSVKGRFTISRDNAKNTVYLQMNSLKPEDTAVYYCAKVPIYRYGVWAMNYWGQGTQVTVSS,high polyreactivity
20,QVQHVESRGGLVQAGGSLRLSCDASGSTFVTYAMGWYRQAPGKERELVAAISRSGGSTYYADSVKGRFTISRDNAKNTVYLQMNSLKPEDTAVYYCAARDGYGATGHDYWGQGTQVTVSS,low polyreactivity
21,QVQHVESVGCLVQAGGTLRLSCASSVRTFLWYTMGWYRQAPGKKRELVATITSGGRTNYADSVKGRFTISRDNAKNTVYLQMNSLNPEDTAVYYCARLGAYTGRYDYWGQGTQVTVSS,high polyreactivity
